Measured values: publication PMC4513104, “Fatty Acid-binding Proteins Interact with Comparative Gene Identification-58 Linking Lipolysis with Lipid Ligand Shuttling*” (The Journal of Biological Chemistry, 2015)

Tests used:
m^solCgi-58 = biological target: T1, m^solCgi-58 (mouse, UniProt Q9DBL9 2-351, S239E); test: NMR titration; 1H-15N HSQC of 50 μM 15N labeled A-Fabp with 0, 10, 25, 50, 100 and 200 μM m^solCgi-58; 15 mM Na2HPO4/KH2PO4, pH 7.0, 300 mM NaCl, 1 mM DTT, 1 mM EDTA; 298 K; conditions: both partners purified
T1 construct: mouse Cgi-58, Lys-2–Asp-351, with S239E; preceded by a TEV protease cleavage site and cleaved by TEV; used for NMR experiments only; also called mCgi-58^S239E; cgi-58_S239E variant with increased solubility; source: E. coli BL21(DE3), co-expressed with the chaperone Tig, purified (His-Trap, TEV cleavage, Superdex 200); not shown: His tag, N-terminal, cleaved; SUMO, N-terminal, cleaved
T1 sequence (looked up): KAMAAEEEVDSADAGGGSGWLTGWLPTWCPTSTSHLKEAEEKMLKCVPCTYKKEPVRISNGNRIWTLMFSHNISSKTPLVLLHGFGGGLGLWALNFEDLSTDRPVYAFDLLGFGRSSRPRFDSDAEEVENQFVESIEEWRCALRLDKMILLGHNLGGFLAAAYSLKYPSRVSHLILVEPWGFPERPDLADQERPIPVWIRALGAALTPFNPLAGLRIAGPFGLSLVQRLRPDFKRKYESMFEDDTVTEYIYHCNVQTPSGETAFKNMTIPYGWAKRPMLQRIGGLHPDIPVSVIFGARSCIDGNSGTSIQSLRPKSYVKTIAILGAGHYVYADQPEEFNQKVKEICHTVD

Gst-Cgi-58 = biological target: T2, Gst-Cgi-58 (mouse, UniProt Q9DBL9 1-351, Sulfo-SBED cross-linker covalently linked (label transfer); fluorescent label NT-495 by NHS coupling (microscale thermophoresis)); test: MST; Gst-tagged Cgi-58 labelled with NT-495 (NHS coupling) at constant amount; unlabeled Strep-tagged A-Fabp 8 nM to 250 μM; 100 mM Tris, pH 8.0, 150 mM NaCl, 1 mM EDTA, 0.05% Tween 20; Monolith NT.115, duplicate; conditions: both partners purified
T2 construct: comparative gene identification-58 (Cgi-58), mouse; also called Gst-tagged Cgi-58; mouse Gst-Cgi-58
T2 sequence (looked up): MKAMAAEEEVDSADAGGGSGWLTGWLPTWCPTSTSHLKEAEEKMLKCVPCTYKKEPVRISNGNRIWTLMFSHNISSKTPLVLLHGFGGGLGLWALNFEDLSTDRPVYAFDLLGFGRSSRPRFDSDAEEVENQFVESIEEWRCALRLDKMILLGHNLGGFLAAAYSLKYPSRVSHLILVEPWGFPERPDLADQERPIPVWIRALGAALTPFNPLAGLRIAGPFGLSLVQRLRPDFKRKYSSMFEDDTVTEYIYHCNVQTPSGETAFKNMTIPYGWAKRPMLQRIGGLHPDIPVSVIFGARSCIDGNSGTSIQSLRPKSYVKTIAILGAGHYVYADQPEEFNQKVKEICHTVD

B1: Strep-tagged A-Fabp (natural protein, human, UniProt P15090 1-132, looked up)
chain: MCDAFVGTWKLVSSENFDDYMKEVGVGFATRKVAGMAKPNMIISVNGDVITIKSESTFKNTEISFILGQEFDEVTADDRKVKSTITLDGGVLVHVQKWDGKSTTIKRKREDDKLVVECVMKGVTSTRVYERA
modifications: 15N (and 13C) labelled in the NMR experiments
notes: residue numbers start with methionine as the first amino acid; vector pASK-IBA5plus; also called Strep-A-Fabp; source: E. coli BL21(DE3), purified (Strep-Tactin)
- binding result (m^solCgi-58): binds
- Kd (Gst-Cgi-58): 192 ± 22 µM
